Experimental data published in US20260015399A1 (Boehringer Ingelheim, published 2026).
*1 amine or outer side, *2 acyl side, *3 side chain or, on linkers, in order; H or OH if unused. Side-chain parts run from the residue outwards. The star is where a group is joined. C18 diacid = O=C(O)CCCCCCCCCCCCCCCCC(=O)*; γGlu = O=C(O)[C@H](CCC(=O)[*:2])N[*:1]; Isovaleryl = CC(C)CC(=O)*; Ahx = NCCCCCC(=O)O

T1: human NPY2 receptor (human, UniProt P49146 1-381)
T1 construct: whole, on cells; also called hNPY2-R; hNPY2R
T1 sequence (looked up): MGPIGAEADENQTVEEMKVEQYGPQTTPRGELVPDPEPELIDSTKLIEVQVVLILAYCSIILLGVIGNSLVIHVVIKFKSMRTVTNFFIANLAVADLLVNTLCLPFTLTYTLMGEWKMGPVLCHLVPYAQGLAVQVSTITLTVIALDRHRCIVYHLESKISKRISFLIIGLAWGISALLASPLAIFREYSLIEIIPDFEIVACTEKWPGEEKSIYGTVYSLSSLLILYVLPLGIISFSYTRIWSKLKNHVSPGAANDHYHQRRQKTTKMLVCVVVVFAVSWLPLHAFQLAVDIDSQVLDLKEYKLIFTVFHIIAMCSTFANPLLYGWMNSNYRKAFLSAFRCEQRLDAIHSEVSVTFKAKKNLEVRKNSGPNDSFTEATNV

B1: Compound 80 (peptide)
peptide: Isovaleryl-APEK([Ahx-γGlu-C18 diacid])PEEDASEAELQRYYVSLRHYYNWLTRQRY-NH2
SMILES: CC(C)CC(=O)N[C@@H](C)C(=O)N1CCC[C@H]1C(=O)N[C@@H](CCC(=O)O)C(=O)N[C@@H](CCCCNC(=O)CCCCCNC(=O)CC[C@H](NC(=O)CCCCCCCCCCCCCCCCC(=O)O)C(=O)O)C(=O)N1CCC[C@H]1C(=O)N[C@@H](CCC(=O)O)C(=O)N[C@@H](CCC(=O)O)C(=O)N[C@@H](CC(=O)O)C(=O)N[C@@H](C)C(=O)N[C@@H](CO)C(=O)N[C@@H](CCC(=O)O)C(=O)N[C@@H](C)C(=O)N[C@@H](CCC(=O)O)C(=O)N[C@@H](CC(C)C)C(=O)N[C@@H](CCC(N)=O)C(=O)N[C@@H](CCCNC(=N)N)C(=O)N[C@@H](Cc1ccc(O)cc1)C(=O)N[C@@H](Cc1ccc(O)cc1)C(=O)N[C@H](C(=O)N[C@@H](CO)C(=O)N[C@@H](CC(C)C)C(=O)N[C@@H](CCCNC(=N)N)C(=O)N[C@@H](Cc1c[nH]cn1)C(=O)N[C@@H](Cc1ccc(O)cc1)C(=O)N[C@@H](Cc1ccc(O)cc1)C(=O)N[C@@H](CC(N)=O)C(=O)N[C@@H](Cc1c[nH]c2ccccc12)C(=O)N[C@@H](CC(C)C)C(=O)N[C@H](C(=O)N[C@@H](CCCNC(=N)N)C(=O)N[C@@H](CCC(N)=O)C(=O)N[C@@H](CCCNC(=N)N)C(=O)N[C@@H](Cc1ccc(O)cc1)C(N)=O)[C@@H](C)O)C(C)C
B2: Compound 86 (peptide)
peptide: Isovaleryl-APEK([Ahx-γGlu-C18 diacid])PEEDATPEEIQRYYASLRHYYNWLTRQRY-NH2
SMILES: CC[C@H](C)[C@H](NC(=O)[C@H](CCC(=O)O)NC(=O)[C@H](CCC(=O)O)NC(=O)[C@@H]1CCCN1C(=O)[C@@H](NC(=O)[C@H](C)NC(=O)[C@H](CC(=O)O)NC(=O)[C@H](CCC(=O)O)NC(=O)[C@H](CCC(=O)O)NC(=O)[C@@H]1CCCN1C(=O)[C@H](CCCCNC(=O)CCCCCNC(=O)CC[C@H](NC(=O)CCCCCCCCCCCCCCCCC(=O)O)C(=O)O)NC(=O)[C@H](CCC(=O)O)NC(=O)[C@@H]1CCCN1C(=O)[C@H](C)NC(=O)CC(C)C)[C@@H](C)O)C(=O)N[C@@H](CCC(N)=O)C(=O)N[C@@H](CCCNC(=N)N)C(=O)N[C@@H](Cc1ccc(O)cc1)C(=O)N[C@@H](Cc1ccc(O)cc1)C(=O)N[C@@H](C)C(=O)N[C@@H](CO)C(=O)N[C@@H](CC(C)C)C(=O)N[C@@H](CCCNC(=N)N)C(=O)N[C@@H](Cc1c[nH]cn1)C(=O)N[C@@H](Cc1ccc(O)cc1)C(=O)N[C@@H](Cc1ccc(O)cc1)C(=O)N[C@@H](CC(N)=O)C(=O)N[C@@H](Cc1c[nH]c2ccccc12)C(=O)N[C@@H](CC(C)C)C(=O)N[C@H](C(=O)N[C@@H](CCCNC(=N)N)C(=O)N[C@@H](CCC(N)=O)C(=O)N[C@@H](CCCNC(=N)N)C(=O)N[C@@H](Cc1ccc(O)cc1)C(N)=O)[C@@H](C)O
B3: Compound 83 (peptide)
peptide: Isovaleryl-APEK([Ahx-γGlu-C18 diacid])PEEDATSEELQRYYVSLRHYYNWLTRQRY-NH2
SMILES: CC(C)CC(=O)N[C@@H](C)C(=O)N1CCC[C@H]1C(=O)N[C@@H](CCC(=O)O)C(=O)N[C@@H](CCCCNC(=O)CCCCCNC(=O)CC[C@H](NC(=O)CCCCCCCCCCCCCCCCC(=O)O)C(=O)O)C(=O)N1CCC[C@H]1C(=O)N[C@@H](CCC(=O)O)C(=O)N[C@@H](CCC(=O)O)C(=O)N[C@@H](CC(=O)O)C(=O)N[C@@H](C)C(=O)N[C@H](C(=O)N[C@@H](CO)C(=O)N[C@@H](CCC(=O)O)C(=O)N[C@@H](CCC(=O)O)C(=O)N[C@@H](CC(C)C)C(=O)N[C@@H](CCC(N)=O)C(=O)N[C@@H](CCCNC(=N)N)C(=O)N[C@@H](Cc1ccc(O)cc1)C(=O)N[C@@H](Cc1ccc(O)cc1)C(=O)N[C@H](C(=O)N[C@@H](CO)C(=O)N[C@@H](CC(C)C)C(=O)N[C@@H](CCCNC(=N)N)C(=O)N[C@@H](Cc1c[nH]cn1)C(=O)N[C@@H](Cc1ccc(O)cc1)C(=O)N[C@@H](Cc1ccc(O)cc1)C(=O)N[C@@H](CC(N)=O)C(=O)N[C@@H](Cc1c[nH]c2ccccc12)C(=O)N[C@@H](CC(C)C)C(=O)N[C@H](C(=O)N[C@@H](CCCNC(=N)N)C(=O)N[C@@H](CCC(N)=O)C(=O)N[C@@H](CCCNC(=N)N)C(=O)N[C@@H](Cc1ccc(O)cc1)C(N)=O)[C@@H](C)O)C(C)C)[C@@H](C)O
B4: Compound 81 (peptide)
peptide: Isovaleryl-APEK([Ahx-γGlu-C18 diacid])PEEDAQPEEIQRYYVSLRHYYNWLTRQRY-NH2
SMILES: CC[C@H](C)[C@H](NC(=O)[C@H](CCC(=O)O)NC(=O)[C@H](CCC(=O)O)NC(=O)[C@@H]1CCCN1C(=O)[C@H](CCC(N)=O)NC(=O)[C@H](C)NC(=O)[C@H](CC(=O)O)NC(=O)[C@H](CCC(=O)O)NC(=O)[C@H](CCC(=O)O)NC(=O)[C@@H]1CCCN1C(=O)[C@H](CCCCNC(=O)CCCCCNC(=O)CC[C@H](NC(=O)CCCCCCCCCCCCCCCCC(=O)O)C(=O)O)NC(=O)[C@H](CCC(=O)O)NC(=O)[C@@H]1CCCN1C(=O)[C@H](C)NC(=O)CC(C)C)C(=O)N[C@@H](CCC(N)=O)C(=O)N[C@@H](CCCNC(=N)N)C(=O)N[C@@H](Cc1ccc(O)cc1)C(=O)N[C@@H](Cc1ccc(O)cc1)C(=O)N[C@H](C(=O)N[C@@H](CO)C(=O)N[C@@H](CC(C)C)C(=O)N[C@@H](CCCNC(=N)N)C(=O)N[C@@H](Cc1c[nH]cn1)C(=O)N[C@@H](Cc1ccc(O)cc1)C(=O)N[C@@H](Cc1ccc(O)cc1)C(=O)N[C@@H](CC(N)=O)C(=O)N[C@@H](Cc1c[nH]c2ccccc12)C(=O)N[C@@H](CC(C)C)C(=O)N[C@H](C(=O)N[C@@H](CCCNC(=N)N)C(=O)N[C@@H](CCC(N)=O)C(=O)N[C@@H](CCCNC(=N)N)C(=O)N[C@@H](Cc1ccc(O)cc1)C(N)=O)[C@@H](C)O)C(C)C
B5: Compound 82 (peptide)
peptide: Isovaleryl-APAK([Ahx-γGlu-C18 diacid])PPEDASPEEIQRYYVSLRHYYNWLTRQRY-NH2
SMILES: CC[C@H](C)[C@H](NC(=O)[C@H](CCC(=O)O)NC(=O)[C@H](CCC(=O)O)NC(=O)[C@@H]1CCCN1C(=O)[C@H](CO)NC(=O)[C@H](C)NC(=O)[C@H](CC(=O)O)NC(=O)[C@H](CCC(=O)O)NC(=O)[C@@H]1CCCN1C(=O)[C@@H]1CCCN1C(=O)[C@H](CCCCNC(=O)CCCCCNC(=O)CC[C@H](NC(=O)CCCCCCCCCCCCCCCCC(=O)O)C(=O)O)NC(=O)[C@H](C)NC(=O)[C@@H]1CCCN1C(=O)[C@H](C)NC(=O)CC(C)C)C(=O)N[C@@H](CCC(N)=O)C(=O)N[C@@H](CCCNC(=N)N)C(=O)N[C@@H](Cc1ccc(O)cc1)C(=O)N[C@@H](Cc1ccc(O)cc1)C(=O)N[C@H](C(=O)N[C@@H](CO)C(=O)N[C@@H](CC(C)C)C(=O)N[C@@H](CCCNC(=N)N)C(=O)N[C@@H](Cc1c[nH]cn1)C(=O)N[C@@H](Cc1ccc(O)cc1)C(=O)N[C@@H](Cc1ccc(O)cc1)C(=O)N[C@@H](CC(N)=O)C(=O)N[C@@H](Cc1c[nH]c2ccccc12)C(=O)N[C@@H](CC(C)C)C(=O)N[C@H](C(=O)N[C@@H](CCCNC(=N)N)C(=O)N[C@@H](CCC(N)=O)C(=O)N[C@@H](CCCNC(=N)N)C(=O)N[C@@H](Cc1ccc(O)cc1)C(N)=O)[C@@H](C)O)C(C)C
B6: Compound 85 (peptide)
peptide: Isovaleryl-APAK([Ahx-γGlu-C18 diacid])PEEDASPEETQRYYVSLRHYYNWLTRQRY-NH2
SMILES: CC(C)CC(=O)N[C@@H](C)C(=O)N1CCC[C@H]1C(=O)N[C@@H](C)C(=O)N[C@@H](CCCCNC(=O)CCCCCNC(=O)CC[C@H](NC(=O)CCCCCCCCCCCCCCCCC(=O)O)C(=O)O)C(=O)N1CCC[C@H]1C(=O)N[C@@H](CCC(=O)O)C(=O)N[C@@H](CCC(=O)O)C(=O)N[C@@H](CC(=O)O)C(=O)N[C@@H](C)C(=O)N[C@@H](CO)C(=O)N1CCC[C@H]1C(=O)N[C@@H](CCC(=O)O)C(=O)N[C@@H](CCC(=O)O)C(=O)N[C@H](C(=O)N[C@@H](CCC(N)=O)C(=O)N[C@@H](CCCNC(=N)N)C(=O)N[C@@H](Cc1ccc(O)cc1)C(=O)N[C@@H](Cc1ccc(O)cc1)C(=O)N[C@H](C(=O)N[C@@H](CO)C(=O)N[C@@H](CC(C)C)C(=O)N[C@@H](CCCNC(=N)N)C(=O)N[C@@H](Cc1c[nH]cn1)C(=O)N[C@@H](Cc1ccc(O)cc1)C(=O)N[C@@H](Cc1ccc(O)cc1)C(=O)N[C@@H](CC(N)=O)C(=O)N[C@@H](Cc1c[nH]c2ccccc12)C(=O)N[C@@H](CC(C)C)C(=O)N[C@H](C(=O)N[C@@H](CCCNC(=N)N)C(=O)N[C@@H](CCC(N)=O)C(=O)N[C@@H](CCCNC(=N)N)C(=O)N[C@@H](Cc1ccc(O)cc1)C(N)=O)[C@@H](C)O)C(C)C)[C@@H](C)O

What follows are binders tested against T1, human NPY2 receptor (assay: RLB: displacement of 125I-PYY(1-36) from hNPY2R membranes).

Ki [nM] | Binder
4.62 | B1
4.33 | B2
6.91 | B3
2.65 | B4
0.58 | B5
1.61 | B6
